In assay [1] the target is human Claudin18.1 expressed on cells (human) (UniProt P56856). Nature of the assay: flow cytometry on 293FT-hClaudin18.1 cells, antibody 10 ug/mL, cells with antibody binding/total cells.
Assay [2] addresses human Claudin18.2 expressed on cells (human) (UniProt P56856). In words: flow cytometry on 293FT-hClaudin18.2 cells, antibody 10 ug/mL, cells with antibody binding/total cells. (In general: Flow cytometry measures light scatter and fluorescence of single cells or particles in a stream.)
Assay [3] concerns the target human Claudin18.1 expressed on cells (human) (UniProt P56856). Nature of the assay: flow cytometry on 293FT CLDN18.1-Luc cells, APC anti-mouse IgG Fc.

B1: 10-hIgG1Fc (Fc fusion, not shown: a dimerising Fc or GST)
chain: QVQLAESGGGLVQPGGSLRLSCAASGNILSINYMGWYRQAPGKERELVATITRGGTTNYQGDLKGRFIISGDNTKDTVYLQMNNLQPEDTAVYYCYFRINFGILGGLRDYWGQGTQVTVSS
B1: the results for the binding percentage in assay [1] and in assay [2] were 2.06% and 96.1%, respectively.

B2: 2-mIgG2aFc (Fc fusion, not shown: a dimerising Fc or GST)
chain: EVQLVESGGGLVQPGGSLRLSCAASGNILSINYMGWYRQAPGKERELVATITRGGSTNYQGNLKGRFIISGDNTKDTVYLQMNNLQPEDTAVYYCYFRINFGILGGLRDYWGQGTQVTVSS
As to B2, the EC50 (as a rule, the concentration needed to bring the measured effect to its halfway point) in assay [3] is 133 nM.

B3: 5-hIgG1Fc (Fc fusion, not shown: a dimerising Fc or GST)
chain: QVQLVESGGGLVQTGGSLRLSCAASDSTFSSYIMGWFRQAPGKEREFVAGITWSGGIKDYADSVKGRFTIARDNAKNTVYLQMNSLKPEDAAIYYCAANAIQLTRRSGDYAYWGQGTQVTVSS
As to B3, the results for the binding percentage in assay [1] and in assay [2] were 2.06% and 96%, respectively.

B4: 1-hIgG1Fc (Fc fusion, not shown: a dimerising Fc or GST)
chain: EVQLVGSGGGLVQPGGSLRLSCAASGSILNLMTTGWYRQAPGKQRDLVATITFGGTTNYADSVKGRFTISRDKSKNTAYLQMDNLKPEDTAVYFCYADVIVGFQDRRVAWDAGTQVTVSS
For B4, the binding percentage came out at 2.75% in assay [1] and 88.9% in assay [2].

B5: 8-hIgG1Fc (Fc fusion, not shown: a dimerising Fc or GST)
chain: QVQLVESGGGLVQPGGSLRLSCAASGSIFGLNFMGWWRQAPGSQRELVAIATSGGSIQYGDSVKGRFTISRDNAKNTVYLQMASLKPEDTAVYYCNVHTYDFLGRDYWGQGTQVTVSL
On to B5, for which the binding percentage stood at 2.26% in assay [1] and 93.9% in assay [2].

For the origin of these results see patent EP4682169A1.
